Test [1] deals with soluble recombinant human IGF-1R hetero-tetramer (2 α chains and the extracellular domains of 2 β chains) with C-terminal 10-His tag (R&D Systems 305-GR-50) (human) (UniProt P08069). The test can be described thus: SPR Biacore X100, His-captured h-IGF-1R (about 600 RU), mean of 4 experiments. (In general: In SPR one partner is held on a chip, and binding of the other changes the refractive index at the surface.)

For test [2] the target is unchanged. The test can be described thus: SPR, Ln(2)/koff.

We go through one molecule from patent US20200270352A1.

B1: humanized antibody hz208F2 VH3/VL3 (hz208F2 H026/L024) (antibody, human IgG1, kappa, V domains shown)
VH: QVQLVQSGAEVKKPGASVKMSCKASGYTFTSYYIYWVKQAPGQGLEWLGWIWPGDGSTKYNEKFQGRVTLTADKSSNTAYMFLSSLRSEDTAVYFCASPMITPNYAMDYWGQGTLVTVSS
VL: DIQMTQSPSSLSASVGDRVTISCRASQDISKYLNWYQQKPGKAPKLLIYYTSRLHSGVPSRFSGRGSGTDYSLTISNLQPEDFATYFCQQGSTLPYTFGGGTKVEIKR
For orientation: Kd means the concentration at which binding is half-saturated. As to B1, the dissociation constant (Kd) in test [1] worked out at 0.06 nM. Also, the half-life of the complex in test [2] lay within 2 to 3 h.
